Drawing on paper PMC8565330, this text covers Kd for two molecules.

The target of this data set is GST-G3BP1 (human, UniProt Q13283 1-466). The data set can be described thus: fluorescence anisotropy. A general note: Fluorescence polarisation rises when a labelled molecule tumbles more slowly, as on binding a larger partner.
Chain of GST-G3BP1 (Q13283 whole entry): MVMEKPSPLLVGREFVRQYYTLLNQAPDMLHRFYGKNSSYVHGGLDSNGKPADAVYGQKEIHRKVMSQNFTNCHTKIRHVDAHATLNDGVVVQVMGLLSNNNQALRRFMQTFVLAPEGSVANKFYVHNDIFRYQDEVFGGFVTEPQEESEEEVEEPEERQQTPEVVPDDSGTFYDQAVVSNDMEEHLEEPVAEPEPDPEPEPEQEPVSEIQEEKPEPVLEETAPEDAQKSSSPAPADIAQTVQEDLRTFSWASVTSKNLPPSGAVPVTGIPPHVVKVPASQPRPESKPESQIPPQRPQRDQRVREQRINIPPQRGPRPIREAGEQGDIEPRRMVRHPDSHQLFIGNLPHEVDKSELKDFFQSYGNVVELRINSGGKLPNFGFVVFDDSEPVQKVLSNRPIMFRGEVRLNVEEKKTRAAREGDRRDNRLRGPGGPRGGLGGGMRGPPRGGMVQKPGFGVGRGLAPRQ

B1: PITX1 rM4 (ssRNA)
RNA: GAGCGCGGAAGCGCGCGCGCGCGCGCGCGG
The Kd is the equilibrium constant for the complex coming apart. Read a high Kd as weaker binding. Take B1: the affinity, expressed as Kd, was 0.761 ± 0.073 µM.

B2: NRAS rM4 (ssRNA)
RNA: GUGUAAAAGGGGCGGGUCUGGGUGCG
Molecule B2 displayed a dissociation constant Kd of 0.266 ± 0.036 µM.
